Test results published in the supplement of paper PMC5998384.

Experiments:
[1] = test system: HeLa Kyoto; assay: solubility change mitosis vs G1/S (difference of NP-40 vs SDS log2 ratios) (log2 ratio difference); higher = more soluble in mitosis
[2] = test system: HeLa Kyoto; assay: thermal stability score vs G1/S (z-score of summed log2 fold changes over temperatures); higher = more thermally stable than in G1/S
[3] = test system: HeLa Kyoto; assay: solubility in G1/S (NP-40 vs SDS abundance) (log2 ratio); higher = more soluble; conditions: cell cycle stage: G1/S
[4] = test system: HeLa Kyoto; assay: melting temperature (median over replicates), in situ; higher = more thermally stable
[5] = cell cycle stage: early G1 (4.5 h after nocodazole release)
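Wherever melting temperature (median over replicates), in situ is given: HeLa Kyoto cells synchronized by double thymidine or nocodazole block, proteins quantified by TMT10plex mass spectrometry, three independent biological replicates.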
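Wherever solubility change mitosis vs G1/S (difference of NP-40 vs SDS log2 ratios) is given: synchronized HeLa Kyoto cells (double thymidine block for G1/S, nocodazole release for mitosis), protein amounts in NP-40 versus SDS lysates quantified by mass spectrometry, three biological replicates.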
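Wherever solubility in G1/S (NP-40 vs SDS abundance) is given: HeLa Kyoto cells arrested at G1/S by double thymidine block, proteins quantified by TMT10plex mass spectrometry in mild NP-40 versus SDS extracts, three biological replicates.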
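Wherever thermal stability score vs G1/S (z-score of summed log2 fold changes over temperatures) is given: synchronized HeLa Kyoto cells, proteins quantified by TMT10plex mass spectrometry, three biological replicates, mitosis taken 0.5 h after nocodazole release, G1/S directly after double thymidine block.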

Sequence	solubility change mitosis (log2) [1]	thermal stability score [2, 5]	thermal stability score ([2]; cell cycle stage: mitosis)	solubility in G1/S (log2) [3]	melting temperature ([4]; cell cycle stage: G1/S) [°C]	melting temperature ([4]; cell cycle stage: mitosis) [°C]
MATDELATKLSRRLQMEGEGGGETPEQPGLNGAAAAAAGAPDEAAEALGSADCELSAKLLRRADLNQGIGEPQSPSRRVFNPYTEFKEFSRKQIKDMEKMFKQYDAGRDGFIDLMELKLMMEKLGAPQTHLGLKNMIKEVDEDFDSKLSFREFLLIFRKAAAGELQEDSGLCVLARLSEIDVSSEGVKGAKSFFEAKVQAINVSSRFEEEIKAEQEERKKQAEEMKQRKAAFKELQSTFK [EFHD2]	0.139	1.76	0.882	0.681	52.5	53.7
MWRVKKLSLSLSPSPQTGKPSMRTPLRELTLQPGALTNSGKRSPACSSLTPSLCKLGLQEGSNNSSPVDFVNNKRTDLSSEHFSHSSKWLETCQHESDEQPLDPIPQISSTPKTSEEAVDPLGNYMVKTIVLVPSPLGQQQDMIFEARLDTMAETNSISLNGPLRTDDLVREEVAPCMGDRFSEVAAVSEKPIFQESPSHLLEESPPNPCSEQLHCSKESLSSRTEAVREDLVPSESNAFLPSSVLWLSPSTALAADFRVNHVDPEEEIVEHGAMEEREMRFPTHPKESETEDQALVSSVEDILSTCLTPNLVEMESQEAPGPAVEDVGRILGSDTESWMSPLAWLEKGVNTSVMLENLRQSLSLPSMLRDAAIGTTPFSTCSVGTWFTPSAPQEKSTNTSQTGLVGTKHSTSETEQLLCGRPPDLTALSRHDLEDNLLSSLVILEVLSRQLRDWKSQLAVPHPETQDSSTQTDTSHSGITNKLQHLKESHEMGQALQQARNVMQSWVLISKELISLLHLSLLHLEEDKTTVSQESRRAETLVCCCFDLLKKLRAKLQSLKAEREEARHREEMALRGKDAAEIVLEAFCAHASQRISQLEQDLASMREFRGLLKDAQTQLVGLHAKQEELVQQTVSLTSTLQQDWRSMQLDYTTWTALLSRSRQLTEKLTVKSQQALQERDVAIEEKQEVSRVLEQVSAQLEECKGQTEQLELENSRLATDLRAQLQILANMDSQLKELQSQHTHCAQDLAMKDELLCQLTQSNEEQAAQWQKEEMALKHMQAELQQQQAVLAKEVRDLKETLEFADQENQVAHLELGQVECQLKTTLEVLRERSLQCENLKDTVENLTAKLASTIADNQEQDLEKTRQYSQKLGLLTEQLQSLTLFLQTKLKEKTEQETLLLSTACPPTQEHPLPNDRTFLGSILTAVADEEPESTPVPLLGSDKSAFTRVASMVSLQPAETPGMEESLAEMSIMTTELQSLCSLLQESKEEAIRTLQRKICELQARLQAQEEQHQEVQKAKEADIEKLNQALCLRYKNEKELQEVIQQQNEKILEQIDKSGELISLREEVTHLTRSLRRAETETKVLQEALAGQLDSNCQPMATNWIQEKVWLSQEVDKLRVMFLEMKNEKEKLMIKFQSHRNILEENLRRSDKELEKLDDIVQHIYKTLLSIPEVVRGCKELQGLLEFLS [SPAG5]	-0.134	0.87	2.82	0.306	48.2	48.4
MAAAGAFRLRRAASALLLRSPRLPARELSAPARLYHKKVVDHYENPRNVGSLDKTSKNVGTGLVGAPACGDVMKLQIQVDEKGKIVDARFKTFGCGSAIASSSLATEWVKGKTVEEALTIKNTDIAKELCLPPVKLHCSMLAEDAIKAALADYKLKQEPKKGEAEKK [ISCU]	0.0125	-1.67	-2.36	0.467	53.3	54
MGAFLDKPKMEKHNAQGQGNGLRYGLSSMQGWRVEMEDAHTAVIGLPSGLESWSFFAVYDGHAGSQVAKYCCEHLLDHITNNQDFKGSAGAPSVENVKNGIRTGFLEIDEHMRVMSEKKHGADRSGSTAVGVLISPQHTYFINCGDSRGLLCRNRKVHFFTQDHKPSNPLEKERIQNAGGSVMIQRVNGSLAVSRALGDFDYKCVHGKGPTEQLVSPEPEVHDIERSEEDDQFIILACDGIWDVMGNEELCDFVRSRLEVTDDLEKVCNEVVDTCLYKGSRDNMSVILICFPNAPKVSPEAVKKEAELDKYLECRVEEIIKKQGEGVPDLVHVMRTLASENIPSLPPGGELASKRNVIEAVYNRLNPYKNDDTDSTSTDDMW [PPM1A]	-0.159	0.1	-0.132	0.243	51.9	52
MSEEIITPVYCTGVSAQVQKQRARELGLGRHENAIKYLGQDYEQLRVRCLQSGTLFRDEAFPPVPQSLGYKDLGPNSSKTYGIKWKRPTELLSNPQFIVDGATRTDICQGALGDCWLLAAIASLTLNDTLLHRVVPHGQSFQNGYAGIFHFQLWQFGEWVDVVVDDLLPIKDGKLVFVHSAEGNEFWSALLEKAYAKVNGSYEALSGGSTSEGFEDFTGGVTEWYELRKAPSDLYQIILKALERGSLLGCSIDISSVLDMEAITFKKLVKGHAYSVTGAKQVNYRGQVVSLIRMRNPWGEVEWTGAWSDSSSEWNNVDPYERDQLRVKMEDGEFWMSFRDFMREFTRLEICNLTPDALKSRTIRKWNTTLYEGTWRRGSTAGGCRNYPATFWVNPQFKIRLDETDDPDDYGDRESGCSFVLALMQKHRRRERRFGRDMETIGFAVYEVPPELVGQPAVHLKRDFFLANASRARSEQFINLREVSTRFRLPPGEYVVVPSTFEPNKEGDFVLRFFSEKSAGTVELDDQIQANLPDEQVLSEEEIDENFKALFRQLAGEDMEISVKELRTILNRIISKHKDLRTKGFSLESCRSMVNLMDRDGNGKLGLVEFNILWNRIRNYLSIFRKFDLDKSGSMSAYEMRMAIESAGFKLNKKLYELIITRYSEPDLAVDFDNFVCCLVRLETMFRFFKTLDTDLDGVVTFDLFKWLQLTMFA [CAPN1]	-0.164	-0.914	-1.67	-0.203	55.9	56.5
